Test: yeast display, Sf9 membrane polyspecificity reagent, FACS + sequencing; frameworks hold sequencing errors
Procedure, shortened: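 Polyreactivity labels are assigned by the sorting gate from which each nanobody was recovered. The gates were low and high (top ~1%), set on anti-HA fluorescence for expression and streptavidin fluorescence for reagent binding. Before sorting, galactose-induced (36–48 hours) yeast display cells were stained for 1 hour at 4 °C with 10% biotinylated, detergent-solubilized Sf9 membrane reagent.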
With “QVQLVESGGGLVQAGGSLRLSCAASGSIFGKNVMGWYRQAPGKERELVAAISRSGGRTYYADSVKGRFTISRDNAKNTVYLQMNSLKPEDTAVYYCAADGQPIGQQTYDYWGQGTQVTVSS” the “polyreactivity (PSR sort gate)” value was “high polyreactivity”. With “QVQLVESGGGLVQAGGSLRLSCAASGSIFSSYAMGWYRQAPGKERELVAAISQNGGSTDYADSVKGRFTISRDKAKNTVYLQMNSLKPEDTAVYYCNAYSVYVRGEYWGQGTQVTVSS” the “polyreactivity (PSR sort gate)” value was “high polyreactivity”. In the case of “QVQLVESGGGLVQAGGSLRLSCAASGIIFNDYAMGWYRQAPGKERELVATISWSGGSTYADSVKGRFTISRDNAKNTVYLQMNSLKPEDTAVYYCAAVPRRSYGGYPYYYWGQGTQVTVSS”, the “polyreactivity (PSR sort gate)” value is reported as “low polyreactivity”. In the case of “QVQLVESGGGLVQAGGSLRLSCAASGSTFAYNTMGWYRQAPGKERELVAAISQRGGSTYADSVKGRFTISRDNAKNTVYLQMNSLKPEETAVYYCAAVGYTYKFDYWGQGTQVTVSS”, the “polyreactivity (PSR sort gate)” value is reported as “low polyreactivity”. In the case of “QVQLVESGGGLVQAGGSLRLSCSASGRTFSKYAMAWYRQAPGKERELVAAISKRGGSTSYADSVKGRFTISRDNAKNTVYLQMNSLKREDTAVYYCAATYTYVVPEYDYWGHGTQVTVSS”, the “polyreactivity (PSR sort gate)” value is reported as “high polyreactivity”. For “QVQLVESGGGLVQAGGSLSLSCAASGYIFLVYAMGWYRQAPGKERELVASITRGGGTTYYADSVKGRFTISRDNAKNTVYLLMNSLKREDTAVYYCAADLYSRGHRWYGYWGQGTQVTVSS”, the “polyreactivity (PSR sort gate)” value was “high polyreactivity”. With “QVQLVESGGGLVQAGGSLRLSCAASGSTFYPYGMGWYRQAPGNERELVAAITDSGGSTYYADSVKGRFTISRDNAKNTVYLQMNSLKPEDTAVYYCAKTYWYPWRASLWHEYDYWGQGTQVTVSS” the “polyreactivity (PSR sort gate)” value was “low polyreactivity”. In the case of “HVQLVESGGGLVQAGGSLRLSCAASGRIFASYPMGWYRPAPGNERELVAAISLSGGSTYYADSVKGRFTISRDNAKNTVYLQMNSLKPEDTAVYYCAAKNYRRYRDYYWGQGTQVTVSS”, the “polyreactivity (PSR sort gate)” value is reported as “high polyreactivity”. For “QVQLVETGGGLVQAGGSLLLSCAASGFTLLSYAMGWYRQAPGKERELVAAISESGVSTSYADSVKGRFTISRDNAKNTVYLQMKSLKPEDTAFYYCNKSDFWVVIYDSWGQGTQVTVSS”, the “polyreactivity (PSR sort gate)” value was “low polyreactivity”. In the case of “QVQLVESGGGLVQAGGSLRLSCAASGFTFSYYAMGWYRQAPGKERELVAAITSSGARTYYADSVKGRFTISRDNAKNTVYFQMNSLKPEDTAVYYCAAEVFRTRTWEYYYWGQGTQVTVSS”, the “polyreactivity (PSR sort gate)” value is reported as “high polyreactivity”. In the case of “QVQLVESGGGLVQAGGSLRLSCAASGITFGRHTMGWYRQAPGKERELVAAIDSGGNTYADSVKGRFTISRDNAKNTVYLQMNSLKPEDTAVYYCAVDGGEFSSYGYWGQGTQVTVSS”, the “polyreactivity (PSR sort gate)” value is reported as “low polyreactivity”. For “QVQLVESGGGLVQAGGSLRFSCAASGSTFVYYAMGWYRQAPGKERELVAAITFGGGSTYYADSVKGRFTISRDNAKNTVYLQMNSLKPEDTAVYYCAVYWDDGSAYPPLIVGYDYWGQGTQVTVSS”, the “polyreactivity (PSR sort gate)” value was “low polyreactivity”. With “QVQLVESGGGLVQAGGSLRLSSAASGLIFTRYAMGWYRQATGKERELVAAISYSGTSTYYADSVKGRFTISRDNAKNTVYLQMNSLKPEDTAVYYCAARSSYPLKGYYWGQGTQVTVSS” the “polyreactivity (PSR sort gate)” value was “high polyreactivity”. With “QVQLVESGGGLVQAGGSLRLSCAASGFTFGYYAMGWYRQAPGKERELVAAITYSGGSTYYADSVKGRFTISRDNAKNTVYLQMNSLKPEDTAVYYCNAYARRYYYGRWYGEFDYWGQGTQVTVSS” the “polyreactivity (PSR sort gate)” value was “low polyreactivity”. In the case of “QVQLVESGAGLVQAGGSLRLSCAASGRTFFVNAMGWYRQAPGKERELVATITFSGDSTYYADSVKGRFTISRDNAKNTVFLQMNSLKPEDTAVYYCAARTGYGYTRYEYWGQGTQVTVSS”, the “polyreactivity (PSR sort gate)” value is reported as “high polyreactivity”. For “QDQLVESGGGLVQAGGSLRLSCAASGRILLDNAMGWYRQAPGKERELVAAISSGGRTYYADSVKGRFTISRDNAKNTVYLQLNSLKPEDTAVYYCAVSGGFYWGQGTQVTVSS”, the “polyreactivity (PSR sort gate)” value was “high polyreactivity”. For “QVQLVESGGGLVQAGGSLRLSCAASGSIVDYNAMGGYRQAPGKERELVAAISVNGGNTYYADSVKGRFTISRDYAKNTVYFQMNTLKPEDTAVYYCAADSYGGSKYDYWGQGTQVTLSS”, the “polyreactivity (PSR sort gate)” value was “low polyreactivity”. With “QVQLVESGGGLVQAGGSLRLSCAASGSTFDTNAMGWYRQAPGKERELVAAISASGGSTYYADSVKGRFTISRDNAKNTVYLQMNSLKPEDTAVYYCAATSGRAFKYDYWGQGTQVTVSS” the “polyreactivity (PSR sort gate)” value was “high polyreactivity”. In the case of “QVQLVESGGGLVQAGGSLRLSCAASGRIFNSYAMGWYRQAPGKERELVAAINWTDVSTYYADSVKGRFTISRDNAKNTVYLQMNSLKPEDTAVYYFAAVRWGSYTLSDDYWGQGTQVTVSS”, the “polyreactivity (PSR sort gate)” value is reported as “low polyreactivity”. For “QVQLKESGGCLVPSRGSLRQSCAASGSISGPHVKGWYRQAPGKEREFVAAINVGANTYYADNVKGRFTISRDNANNPGYLQMNSLKPEDTAVYFCAAVYFGDIGHEYWGQGTQVTVSC”, the “polyreactivity (PSR sort gate)” value was “low polyreactivity”. For “QVQLVESGGGLVQAGGSLRLTCAASGLIFGVYAMGWYRQAPGKEMELVAGISWRGSSTYYADSVKGRFTISRDYAKNTVYLQMNSLIPEDTAVYYCADVRRPSRHAYGGTAVYYWGQGTQVTVSS”, the “polyreactivity (PSR sort gate)” value was “high polyreactivity”. In the case of “QVQLVETGGGLVQAGGSLRLSCAASGRTFDPNAMGWYRQAPGKERELVAAIDWTGGRTYYADSVKGRFTISRDNAKNTVYLQMNSLKPEDTAVYYCAARYYRFRSSRDYWGQGTQVTVSS”, the “polyreactivity (PSR sort gate)” value is reported as “high polyreactivity”. With “QVQLVESGGGLVQAGGSLRLSCADSGGTFGNTAMGLYRQAHGKEMELVAAINRSDGGTYYADSEKCRFTISRDNAKNTVYLQMNSLKPEDTAVYYCNADDFYYDEPYDFWGQGTQVTVSS” the “polyreactivity (PSR sort gate)” value was “low polyreactivity”. For “PVQLVESGGGLVQAGGSLRLSCAASGRTFPFYGMGWYRQAPGKERELVAAISISGGSTYYADSVKGRFTISRDNAKNTVYVQMNSLKPEDTAVYYCAAVGPRSYGFGNGYWGQGTQVTVSS”, the “polyreactivity (PSR sort gate)” value was “high polyreactivity”. For “QVQLVESGGGLVQAGGSLRLSCPASGRTFHYYTLGWYRQSPGKERELVARISLGVGSTYYADSVKGRFTISRDIAKNTVDLQMNSLKPEDTAVYYCNAVWYKSVVKGVYGRVDWGQGTQVTVSS”, the “polyreactivity (PSR sort gate)” value was “low polyreactivity”. In the case of “QVQLVESGGGLVQAGGSLRLSCAASVIIISYYAIGWYRQAPGKERELVAAITRGGGRTYYADSVKGRFTISRDNAKNTVYLQMNSLKPEDTAVYYCKALSRYVENDYWGQGTQVTVSS”, the “polyreactivity (PSR sort gate)” value is reported as “high polyreactivity”. For “QVQLVESGGGLVQAGGSLRLSCAASGSTFRFYAMGWYRQAPGKERELVAAITGSGGRTYYADSVKGRFTISRDNAKNTVYLQMNSLKPEDTAVYYCSARAYWLTGLTFSYKYNYWGQGTQVTVSS”, the “polyreactivity (PSR sort gate)” value was “high polyreactivity”. For “QVQLVESGGGLVQAGGSLLLSCAASGFTLPSYAMGWYIQAPGKERELVAAISSTGRTYYADSVKGRFTISRDNAKNTVYLQMNSLKPEDTAVYYCAARQDTWDAYLSTGEFDYWGQGTQVTVSS”, the “polyreactivity (PSR sort gate)” value was “high polyreactivity”. For “QVQLVESGGGLVQAGGTLRLSCAASGIIFSFYTMGWYRQAPGKERELVAAITWSGGSTYYADSVKGRFTISRANAKNTVYLQMNSLKPEDTAVYYCNARNPWRKRSQGYSWGQGTQVTVSS”, the “polyreactivity (PSR sort gate)” value was “low polyreactivity”. For “QVQLVESGGGIVQAGGSLRLSCAASGLNFYWYAMGWYRQAPGKERELVAAITWSGGITYYADSVKGRFTISRDNANNTVYLQMNSLNPEDTAVYYCADDDDYGDVTYDYWGHGTQVTVSS”, the “polyreactivity (PSR sort gate)” value was “low polyreactivity”. In the case of “QVQLVESGRGLVQAGGSLRLSCAASGRTFRAYAMGWYRQAPGKERELVAAISSRGGSTYYADSVKGRFTISRDNAKNTVYFQMNSLKPEDTAVYYCNVDRYVRGLITFDYWGQGTQVTVSS”, the “polyreactivity (PSR sort gate)” value is reported as “high polyreactivity”. With “QVQLVESGGGLVQAGGSLLLSCAASGFTFTVYAMGWYILAPGKERELVAAISWNGGSTYYADSVKGRFTISRDNAKNTVYLQMNSLKPEDTAVYYCNTLQPYLYDYWGQGTQVTVSS” the “polyreactivity (PSR sort gate)” value was “high polyreactivity”. In the case of “QVQLVESGGGLVQAGGSLRISCAASGGIFRYVMGWYRQAPGKERELVATISGRGGSTYYADSVKGRFTISRDNAKNTVYLQMNSLKPEDTAVYYCATHSWRRAGYEYWGQGTQVTVSS”, the “polyreactivity (PSR sort gate)” value is reported as “high polyreactivity”. With “QVQLVESGGGLVQAGGSLRLSCAASGRTFYAYAMGWSRQAPGKERELVAAITSGASTYYADSVKGRFTISRDNAKNTVYLQMNSLKPEDTAVYYCAKRVRYYKPGYDYWGQGTQVTVSS” the “polyreactivity (PSR sort gate)” value was “low polyreactivity”. With “QVQLVESGGGLVQAGGSLRLSCAASGGIFLFNAMGWYRQAPGKERELVAAITDGGSTYYADSVKGRFTISRDNAKNTVYLQMNSLKPEDTAVYYCNAEGVSLYGYDSGVDSGEDYWGQGTQVTVSS” the “polyreactivity (PSR sort gate)” value was “low polyreactivity”. With “QVQLVESGGGLVQSGGSLRLSCAASGRTFSKNAMGWYRQAPGKERELVAAISGSGGSTYYADSVKGRFTISRDNAKNTVYLQMNSLKPEDTAVYYCADRYTVRRSGYWGQGTQVTVSS” the “polyreactivity (PSR sort gate)” value was “high polyreactivity”. With “QVQLVESGGGLVQAGGSLRLSCAASGRIFNEYAMGWYRQAPGKERELVAAITYSDDSTYYADSVKGRFTISRDNAKNTVYLQMNSLKPEDTAVYYCNADTPVWDGHAYPVDYWGQGTQVTVSS” the “polyreactivity (PSR sort gate)” value was “low polyreactivity”. In the case of “QVQLVESGGGLVQAGGSLRLSCAASGSTFPYYAMGWYRQAPGKERELVAAISWRGTRTYYADSVKGRFTISRDNAKNTVYLQMNSLKPEDTAVYYCNAYHTPEYQEGGYYWGQGTQVTVSS”, the “polyreactivity (PSR sort gate)” value is reported as “high polyreactivity”. For “QVQLVESAGGGVQAGGSLRLSCPASGIIFVPNTMGWYRQAPGKEREFVASISRRGGNTNYADSVKGRFTISRDNAKNTVYLQMNSLKPEDTAVYYCAKYSSSEGKYDYWGQGTQVTVSS”, the “polyreactivity (PSR sort gate)” value was “high polyreactivity”. With “QVQLVESGGGLVQAGGSLRLSCAASGSIFARYAMGWYRQAPGKERELDAAISGRGGSTYYADSVKGRFTISRDNAKNTVYLQMNSLKPEDTAVYYCNAVGHTSIRRALDILDYWGQGTQVTVSS” the “polyreactivity (PSR sort gate)” value was “high polyreactivity”. For “QVQLVESGGGLVQAGGSLRLSCAASGIIFWDNAMGWYRQAPGKERELVASINYSGGSTYYADSVKGRFTISRDNAKNTVYLQMNSLKPEDTAVYYCAARTVTLDDWDYAYDYWGQGTQVTVSS”, the “polyreactivity (PSR sort gate)” value was “low polyreactivity”. With “QVQLVESGGGLVQAGGSLRLSCAASGRILKVYAMGWYRQAPGKERELVAAISVNGGRTYYADSVKGRFTISRDNAKNTVYLQMNSLKPEDTAVYYCAKRLYKPGNVFYSVDQSDYWGQGTQVTVSS” the “polyreactivity (PSR sort gate)” value was “low polyreactivity”. With “QVQLVESGGGLVQAGGSLRLICAASGYTFFFYAMGWYRQAPGKEREFVAAITWRGDSTYYADSVKGRYTISRDNAKNTVYLQMNSLKPEDTAVYYCAADPGFTWSRRMDYWGHGTQVTVSS” the “polyreactivity (PSR sort gate)” value was “low polyreactivity”.
